Data published in patent US7304127.
Values joined by “and” are separate entries in the source; they are usually repeats but may differ in a detail not shown here. Equal entries are not always repeated.

The binders below were run against HIV-1LAI envelope gp120 labeled with radioactive iodine (HIV-1 LAI), P03377 (assay: 125I-gp120, peptide array).

Binder | counts minus background (counts per 20 min)
TLLHAGGFQKHRSLKIIF (modifications not checked) [STRL33 217-234] | 1040 and 1000
FIGFFSGIFFIILLTIDR (modifications not checked) [CCR5 109-126] | 76
AGGFQKHRSLKIIFLVMA (modifications not checked) [STRL33 221-238] | 340 and 260
QKHRSLKIIFLVMAVFLL (modifications not checked) [STRL33 225-242] | 810 and 814
SLKIIFLVMAVFLLTQMP (modifications not checked) [STRL33 229-246] | 612 and 854
IFLVMAVFLLTQMPFNLM (modifications not checked) [STRL33 233-250] | 386 and 772
MAVFLLTQMPFNLMKFIR (modifications not checked) [STRL33 237-254] | 2260 and 2840
FSGIFFIILLTIDRYLAV (modifications not checked) [CCR5 113-130] | 83
LLTQMPFNLMKFIRSTHW (modifications not checked) [STRL33 241-258] | 2510 and 3150
MPFNLMKFIRSTHWEYYA (modifications not checked) [STRL33 245-262] | 2170 and 2180
LMKFIRSTHWEYYAMTSF (modifications not checked) [STRL33 249-266] | 934 and 950
IRSTHWEYYAMTSFHYTI (modifications not checked) [STRL33 253-270] | 1570 and 1810
HWEYYAMTSFHYTIMVTE (modifications not checked) [STRL33 257-274] | 2040 and 3070
IYDINYYTSEPCQKINVK (modifications not checked) [CCR5 9-26] | 228
FFIILLTIDRYLAVVHAV (modifications not checked) [CCR5 117-134] | 77
YAMTSFHYTIMVTEAIAY (modifications not checked) [STRL33 261-278] | 2690 and 2360
SFHYTIMVTEAIAYLRAC (modifications not checked) [STRL33 265-282] | 762 and 1030
TIMVTEAIAYLRACLNPV (modifications not checked) [STRL33 269-286] | 140 and 272
TEAIAYLRACLNPVLYAF (modifications not checked) [STRL33 273-290] | 604 and 480
AYLRACLNPVLYAFVSLK (modifications not checked) [STRL33 277-294] | 1800 and 1850
LLTIDRYLAVVHAVFALK (modifications not checked) [CCR5 121-138] | 31
ACLNPVLYAFVSLKFRKN (modifications not checked) [STRL33 281-298] | 4170 and 4520
PVLYAFVSLKFRKNFWKL (modifications not checked) [STRL33 285-302] | 1860 and 2150
AFVSLKFRKNFWKLVKDI (modifications not checked) [STRL33 289-306] | 808 and 1040
LKFRKNFWKLVKDIGCLP (modifications not checked) [STRL33 293-310] | 920 and 958
DRYLAVVHAVFALKARTV (modifications not checked) [CCR5 125-142] | 62
